Substitutions are numbered along the chain they refer to.
B1: Comp 3 (antibody, human IgG1, kappa, N297G, V domains shown)
VH: QVQLVQSGAEVKKPGASVKVSCKASGYTFTDYYINWVRQAPGQGLEWMGNVNPNDGGTTYNQKFKGRVTMTTDTSTSTAYMELRSLRSDDTAVYYCARREIYFYGTIYYYAMDYWGQGTLVTVSS
VL: DIQLTQSPSFLSASVGDRVTITCRASESVDYYGNSFMYWYQQKPGKAPKLLIYFASNLESGVPSRFSGSGSGTEFTLTISSLQPEDFATYYCQQNNEDPWTFGGGTKVEIKR
notes: The text says 'a LILRB2/1 antibody (Comp 3); also called comparator LILRB2/1 antibody
B2: B21H1-11 (antibody, human IgG1, kappa)
heavy: not shown
light: DIQMTQSPSTLSASVGDRVTITCQASGNIYSFLAWYQQKPGKAPKLLIYTASNLETGVPSRFSGSGSGTEYTLTISSLQPDDFATYYCLGGLYSSDVSYAFGPGTKVEIKRTVAAPSVFIFPPSDEQLKSGTASVVCLLNNFYPREAKVQWKVDNALQSGNSQESVTEQDSKDSTYSLSSTLTLSKADYEKHKVYACEVTHQGLSSPVTKSFNRGEC
notes: humanized IgG1/kappa, VH1+VL1
B3: B21H1-14 (antibody, human IgG1, kappa)
heavy: not shown
light: B2 light with I2V, Q3V, L11V, I21L, K42Q, A43P, S60D, E70D, P80A, P103Q
notes: humanized IgG1/kappa, VH1+VL4
B4: B21H1-32 (antibody, human IgG1, kappa)
heavy: not shown
light: B2 light with T10S, A43V, E70D, P80S, D81E, F83A, P103G, E108V
notes: humanized IgG1/kappa, VH3+VL2
B5: B21H1-55 (antibody, human IgG1, kappa)
heavy: not shown
light: DIQMTQTPSTVEASVGGTVTITCQASGNIYSFLAWYQQKPGQPPKLLIYTASNLETGVPSRFSGSGSGTEYTLTISGLQSDDAATYYCLGGLYSSDVSYAFGGGTEVVVKRTVAAPSVFIFPPSDEQLKSGTASVVCLLNNFYPREAKVQWKVDNALQSGNSQESVTEQDSKDSTYSLSSTLTLSKADYEKHKVYACEVTHQGLSSPVTKSFNRGEC
notes: humanized IgG1/kappa, VH5+VL5

molecular target: T1, human LILRB1 on cells (human, UniProt Q8NHL6 24-650); assay: flow cytometry, AF647-labelled antibody at 10 µg/mL on human PBMC, gate: CD56dim CD16+ NK cells (LILRB1-expressing subset per paragraph 345)
T1 construct: whole, on cells; also called hLILRB1; LILRB1-expressing 721.221 cells
Experimental: To further characterize the binding of LILRB2/1 antibodies to LILRB1 expressing immune cell subsets (namely, B, T, and NK cells), binding assays were performed with primary human PBMCs. Single cell suspensions of peripheral blood mononuclear cells (PBMCs) from healthy donors were seeded at 0.5 million per well in 96-well plates (Thermo Fisher, No. 249946). PBMCs were blocked with 0.5 mg/mL of human IgG1 myeloma plasma (Athens Research, No. 16-16-090707-1M) in FACS Buffer (PBS containing 2% FBS, 2 mM EDTA and 0.05% NaN₃) for 45 min to 1 h at 4° C. The immune cell phenotyping antibodies and indicated AlexaFluor647-labeled test antibodies were then added to the cells and incubated for 45 min to 1 h at 4° C.
Cells were washed 1× with PBS and stained with the Zombie Violet™ fixable viability dye for 15 min at RT for live cell discrimination. Cells were washed 1× with FACS Buffer, fixed, and acquired on a FACS Symphony cytometer (BD Biosciences). Data analysis was performed using the FlowJo software (v10.8.1). […]

T1 sequence (Q8NHL6 24-650): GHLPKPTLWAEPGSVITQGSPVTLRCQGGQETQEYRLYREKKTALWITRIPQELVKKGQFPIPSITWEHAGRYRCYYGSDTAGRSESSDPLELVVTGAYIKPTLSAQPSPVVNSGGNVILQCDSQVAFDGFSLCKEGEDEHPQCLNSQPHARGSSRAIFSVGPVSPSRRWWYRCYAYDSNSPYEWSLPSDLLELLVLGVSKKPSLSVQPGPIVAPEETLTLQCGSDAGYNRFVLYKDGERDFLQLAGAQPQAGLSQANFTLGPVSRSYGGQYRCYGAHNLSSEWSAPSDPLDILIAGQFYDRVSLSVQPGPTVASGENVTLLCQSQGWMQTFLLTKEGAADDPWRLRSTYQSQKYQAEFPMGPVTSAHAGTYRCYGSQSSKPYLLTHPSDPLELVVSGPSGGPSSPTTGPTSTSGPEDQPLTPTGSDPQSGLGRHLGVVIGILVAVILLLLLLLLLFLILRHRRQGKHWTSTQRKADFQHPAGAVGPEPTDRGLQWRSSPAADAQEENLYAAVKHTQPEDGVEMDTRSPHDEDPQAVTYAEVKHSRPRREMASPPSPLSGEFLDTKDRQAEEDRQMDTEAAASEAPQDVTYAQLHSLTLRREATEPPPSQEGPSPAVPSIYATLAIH

binding result	Binder
binds	B1

molecular target: T1, human LILRB1 on cells; assay: flow cytometry, 721.221 cells, AF647-labelled antibody
Experimental: While LILRB2 expression is mostly restricted to myeloid cells, LILRB1 has a broader expression on immune cell subsets, including B cells, T cells and NK cells.
Frozen cells were removed from storage in vapor phase liquid nitrogen and thawed by gentle swirling in a water bath at 37° C., then resuspended in DMEM media with 10% FBS. Cells were placed in a 15 mL conical tube and centrifuged at 300×g for 5 min, then supernatant was removed. Cells were resuspended in DMEM+10% FBS at a cell density of 2×10⁵ cells/mL in a T75 flask for culturing, and incubated at 37° C., 5% CO₂ for 3 days before passaging. Cells were passaged when the cell density reached 1×10⁶ cell/mL. On the day of the assay, cells were centrifuged, then supernatant was removed. Cells were resuspended in Blocking Buffer B (FACS Buffer containing 10% FBS and 0.5 mg/mL human IgG1 (Athens Research, No. 16-16-090707-1M)+0.05% NaN₃, 5% (w/v)) in a 15 mL conical tube, then incubated at 4° C. for 30 min. […] Cells were incubated with antibodies at 4° C. for 1 h. Cells were washed twice in FACS Buffer (PBS containing 2 mM EDTA+1% FBS+0.05% NaN₃) and then stained with for 10 min with Zombie Violet™ fixable viability dye (BioLegend, No. 423114) at RT, washed with FACS Buffer and resuspend in 75 μL of FACS Buffer for acquisition on a BD FACSymphony™ or BD FACSCanto™ II flow cytometer (BD Biosciences), as described in Example 6.

EC50 [µg/mL]	Binder
0.203	B2
0.0552	B3
0.0518	B4
0.0507	B5

molecular target: T2, human LILRB2 on cells (human, UniProt Q8N423 22-597); assay: flow cytometry, LILRB2-HEK293T cells, AF647-labelled antibody
T2 construct: whole, on cells; also called hLILRB2; LILRB2-HEK293T
Method in brief: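 Cells were blocked 30 min at 4° C in FACS buffer with 10% FBS and 0.5 mg/mL human IgG1. AF647-labelled antibodies were then bound for 1 h at 4° C. After Zombie Violet viability staining, binding was read by flow cytometry.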

T2 sequence (Q8N423 22-597): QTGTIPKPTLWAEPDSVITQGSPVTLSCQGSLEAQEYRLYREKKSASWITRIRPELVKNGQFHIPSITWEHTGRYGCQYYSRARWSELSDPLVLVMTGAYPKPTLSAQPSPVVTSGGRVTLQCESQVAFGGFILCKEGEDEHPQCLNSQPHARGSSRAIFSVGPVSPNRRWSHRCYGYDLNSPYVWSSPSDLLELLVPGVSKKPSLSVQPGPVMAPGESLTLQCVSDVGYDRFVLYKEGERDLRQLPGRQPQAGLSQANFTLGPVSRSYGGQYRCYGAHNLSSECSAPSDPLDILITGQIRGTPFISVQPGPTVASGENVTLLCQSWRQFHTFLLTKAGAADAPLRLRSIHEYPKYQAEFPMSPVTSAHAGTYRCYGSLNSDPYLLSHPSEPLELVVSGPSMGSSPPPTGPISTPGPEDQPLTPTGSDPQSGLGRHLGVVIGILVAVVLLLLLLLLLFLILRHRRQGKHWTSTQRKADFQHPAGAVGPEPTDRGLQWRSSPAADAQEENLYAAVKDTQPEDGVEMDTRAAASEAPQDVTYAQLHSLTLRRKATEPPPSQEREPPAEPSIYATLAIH

EC50 [µg/mL]	Binder
0.00107	B2
0.0011	B3
0.00123	B4
0.00071	B5

molecular target: T2, human LILRB2 on cells; assay: flow cytometry, HEK293-6E transfectants
Method in brief: (§1)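 Antibody binding measured by flow cytometry on HEK293-6E cells transiently transfected with individual human LILRB (1–5) or LILRA (1, 2, 4, 5, 6) plasmids. Antibodies tested at 1 μg/mL.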

MFI [MFI]	Binder
5090	B2
5760	B3
5460	B4
4120	B5

molecular target: T3, human LILRA2 on HEK293-6E cells (human, UniProt Q8N149 24-483); assay: flow cytometry, HEK293-6E transfectants
T3 construct: whole, on cells; also called hLILRA2
Method in brief: as §1

T3 sequence (Q8N149 24-483): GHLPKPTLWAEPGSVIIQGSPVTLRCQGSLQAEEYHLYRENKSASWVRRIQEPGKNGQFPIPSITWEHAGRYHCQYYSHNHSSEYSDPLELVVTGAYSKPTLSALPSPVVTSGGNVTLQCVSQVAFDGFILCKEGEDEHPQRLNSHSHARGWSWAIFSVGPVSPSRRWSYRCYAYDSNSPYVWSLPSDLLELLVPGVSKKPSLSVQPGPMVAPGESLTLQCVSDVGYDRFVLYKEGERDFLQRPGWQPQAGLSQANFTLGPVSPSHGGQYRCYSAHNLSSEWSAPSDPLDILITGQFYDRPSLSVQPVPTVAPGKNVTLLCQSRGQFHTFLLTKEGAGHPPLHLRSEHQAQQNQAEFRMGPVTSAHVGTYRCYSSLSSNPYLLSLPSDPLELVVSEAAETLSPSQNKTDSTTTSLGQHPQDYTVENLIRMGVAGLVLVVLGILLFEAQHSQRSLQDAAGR

MFI [MFI]	binding result	Binder
27.8	no binding (tested: 1 µg/mL)	B2
28.6	no binding (tested: 1 µg/mL)	B3
27.8	no binding (tested: 1 µg/mL)	B4
27.9	no binding (tested: 1 µg/mL)	B5

molecular target: T4, human LILRB3 on HEK293-6E cells (human, UniProt O75022 24-631); assay: flow cytometry, HEK293-6E transfectants
T4 construct: whole, on cells; also called hLILRB3
Method in brief: as §1

T4 sequence (O75022 24-631): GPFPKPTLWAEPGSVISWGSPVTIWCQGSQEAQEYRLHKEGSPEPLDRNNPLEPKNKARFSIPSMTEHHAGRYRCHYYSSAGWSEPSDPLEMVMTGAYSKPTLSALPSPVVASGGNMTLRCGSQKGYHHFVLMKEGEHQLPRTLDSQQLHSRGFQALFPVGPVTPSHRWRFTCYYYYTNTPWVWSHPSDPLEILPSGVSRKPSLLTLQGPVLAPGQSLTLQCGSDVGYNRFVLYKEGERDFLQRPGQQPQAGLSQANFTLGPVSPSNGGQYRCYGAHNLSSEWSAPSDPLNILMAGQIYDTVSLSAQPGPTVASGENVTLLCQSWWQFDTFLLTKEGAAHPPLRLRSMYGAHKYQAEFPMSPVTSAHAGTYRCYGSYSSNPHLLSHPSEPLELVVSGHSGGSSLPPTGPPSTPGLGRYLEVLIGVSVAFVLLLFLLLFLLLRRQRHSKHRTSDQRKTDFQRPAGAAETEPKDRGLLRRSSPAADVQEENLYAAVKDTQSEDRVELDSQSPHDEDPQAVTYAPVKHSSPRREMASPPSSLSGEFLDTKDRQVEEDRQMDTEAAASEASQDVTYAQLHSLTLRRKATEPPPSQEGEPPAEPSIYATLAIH

MFI [MFI]	binding result	Binder
102	no binding (tested: 1 µg/mL)	B2
104	no binding (tested: 1 µg/mL)	B3
99.2	no binding (tested: 1 µg/mL)	B4
108	no binding (tested: 1 µg/mL)	B5

molecular target: T5, human LILRB5 on HEK293-6E cells (human, UniProt O75023 24-590); assay: flow cytometry, HEK293-6E transfectants
T5 construct: whole, on cells; also called hLILRB5
Method in brief: as §1

T5 sequence (O75023 24-590): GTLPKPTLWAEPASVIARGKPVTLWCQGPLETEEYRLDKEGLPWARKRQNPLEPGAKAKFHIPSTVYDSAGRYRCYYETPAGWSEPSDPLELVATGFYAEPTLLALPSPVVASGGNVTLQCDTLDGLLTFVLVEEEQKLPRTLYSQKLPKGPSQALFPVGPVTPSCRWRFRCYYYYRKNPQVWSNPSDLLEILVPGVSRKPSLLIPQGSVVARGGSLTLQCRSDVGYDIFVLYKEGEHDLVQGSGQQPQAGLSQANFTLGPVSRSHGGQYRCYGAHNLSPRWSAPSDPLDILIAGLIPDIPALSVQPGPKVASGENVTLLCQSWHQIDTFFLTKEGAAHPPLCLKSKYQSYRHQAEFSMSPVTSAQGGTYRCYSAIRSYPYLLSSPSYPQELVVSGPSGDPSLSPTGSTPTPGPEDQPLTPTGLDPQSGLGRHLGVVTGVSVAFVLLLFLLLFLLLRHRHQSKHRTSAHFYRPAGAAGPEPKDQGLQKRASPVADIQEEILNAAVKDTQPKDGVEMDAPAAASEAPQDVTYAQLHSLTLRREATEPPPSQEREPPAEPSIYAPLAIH

MFI [MFI]	binding result	Binder
93.4	no binding (tested: 1 µg/mL)	B2
93.3	no binding (tested: 1 µg/mL)	B3
87.9	no binding (tested: 1 µg/mL)	B4
94.8	no binding (tested: 1 µg/mL)	B5

molecular target: T6, human LILRA5 on HEK293-6E cells (human, UniProt A6NI73 42-299); assay: flow cytometry, HEK293-6E transfectants
T6 construct: whole, on cells; also called hLILRA5
Method in brief: as §1

T6 sequence (A6NI73 42-299): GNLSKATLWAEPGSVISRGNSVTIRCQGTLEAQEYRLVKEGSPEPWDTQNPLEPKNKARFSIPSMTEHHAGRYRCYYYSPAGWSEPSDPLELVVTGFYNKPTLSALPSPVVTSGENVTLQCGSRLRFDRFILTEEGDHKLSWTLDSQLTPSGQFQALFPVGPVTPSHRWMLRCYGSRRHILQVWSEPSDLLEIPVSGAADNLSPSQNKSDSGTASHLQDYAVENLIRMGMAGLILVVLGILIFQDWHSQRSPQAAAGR

MFI [MFI]	binding result	Binder
76	no binding (tested: 1 µg/mL)	B2
78.3	no binding (tested: 1 µg/mL)	B3
74	no binding (tested: 1 µg/mL)	B4
77.4	no binding (tested: 1 µg/mL)	B5

molecular target: T7, human LILRB4 on HEK293-6E cells (human, UniProt Q8NHJ6 22-448); assay: flow cytometry, HEK293-6E transfectants
T7 construct: whole, on cells; also called hLILRB4
Method in brief: as §1

MFI [MFI]	binding result	Binder
32.4	no binding (tested: 1 µg/mL)	B2
33.5	no binding (tested: 1 µg/mL)	B3
28.8	no binding (tested: 1 µg/mL)	B4
33.5	no binding (tested: 1 µg/mL)	B5

molecular target: T8, human LILRA1 on HEK293-6E cells (human, UniProt O75019 17-489); assay: flow cytometry, HEK293-6E transfectants
T8 construct: whole, on cells; also called hLILRA1
Method in brief: as §1

MFI [MFI]	binding result	Binder
244	no binding (tested: 1 µg/mL)	B2
249	no binding (tested: 1 µg/mL)	B3
249	no binding (tested: 1 µg/mL)	B4
332	no binding (tested: 1 µg/mL)	B5

molecular target: T9, human LILRA6 on HEK293-6E cells (human, UniProt Q6PI73 24-481); assay: flow cytometry, HEK293-6E transfectants
T9 construct: whole, on cells; also called hLILRA6
Method in brief: as §1

T9 sequence (Q6PI73 24-481): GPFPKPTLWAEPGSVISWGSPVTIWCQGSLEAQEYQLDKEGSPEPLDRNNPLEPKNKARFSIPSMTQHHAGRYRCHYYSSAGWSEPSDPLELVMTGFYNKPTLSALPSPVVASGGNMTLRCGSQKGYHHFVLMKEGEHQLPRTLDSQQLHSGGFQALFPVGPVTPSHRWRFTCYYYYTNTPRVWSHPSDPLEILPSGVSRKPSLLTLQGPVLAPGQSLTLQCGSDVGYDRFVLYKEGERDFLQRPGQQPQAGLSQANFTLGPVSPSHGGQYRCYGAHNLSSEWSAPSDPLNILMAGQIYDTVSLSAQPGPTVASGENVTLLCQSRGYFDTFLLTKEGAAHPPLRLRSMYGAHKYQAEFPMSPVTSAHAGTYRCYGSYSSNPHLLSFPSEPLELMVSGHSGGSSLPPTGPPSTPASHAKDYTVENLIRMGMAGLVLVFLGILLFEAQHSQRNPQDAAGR

MFI [MFI]	binding result	Binder
152	no binding (tested: 1 µg/mL)	B2
151	no binding (tested: 1 µg/mL)	B3
142	no binding (tested: 1 µg/mL)	B4
148	no binding (tested: 1 µg/mL)	B5

molecular target: T10, human LILRA4 on HEK293-6E cells (human, UniProt P59901 24-499); assay: flow cytometry, HEK293-6E transfectants
T10 construct: whole, on cells; also called hLILRA4
Method in brief: as §1

T10 sequence (P59901 24-499): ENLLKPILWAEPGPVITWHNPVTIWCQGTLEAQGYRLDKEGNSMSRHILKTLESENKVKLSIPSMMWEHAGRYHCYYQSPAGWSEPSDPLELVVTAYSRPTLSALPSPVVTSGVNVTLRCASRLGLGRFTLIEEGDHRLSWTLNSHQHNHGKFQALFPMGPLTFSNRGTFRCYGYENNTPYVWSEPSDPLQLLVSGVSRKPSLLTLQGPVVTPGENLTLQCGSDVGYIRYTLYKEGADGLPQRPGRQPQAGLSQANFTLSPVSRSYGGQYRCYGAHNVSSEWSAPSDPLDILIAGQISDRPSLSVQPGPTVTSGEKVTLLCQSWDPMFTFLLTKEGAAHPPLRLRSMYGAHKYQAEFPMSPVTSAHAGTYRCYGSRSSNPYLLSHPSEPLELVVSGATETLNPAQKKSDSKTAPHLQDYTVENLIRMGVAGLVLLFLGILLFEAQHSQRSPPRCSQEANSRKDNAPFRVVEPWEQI

MFI [MFI]	binding result	Binder
140	no binding (tested: 1 µg/mL)	B2
140	no binding (tested: 1 µg/mL)	B3
126	no binding (tested: 1 µg/mL)	B4
144	no binding (tested: 1 µg/mL)	B5

molecular target: T1, human LILRB1 on cells; assay: flow cytometry, HEK293-6E transfectants
Method in brief: as §1

MFI [MFI]	Binder
1000	B2
988	B3
1040	B4
1030	B5

molecular target: T11, recombinant human LILRB1-His (human, UniProt Q8NHL6 24-458); assay: MSD ELISA, coated antigen, purified IgG1
T11 construct: Bought protein; also called LILRB1 protein
T11 sequence (Q8NHL6 24-458 limits assumed): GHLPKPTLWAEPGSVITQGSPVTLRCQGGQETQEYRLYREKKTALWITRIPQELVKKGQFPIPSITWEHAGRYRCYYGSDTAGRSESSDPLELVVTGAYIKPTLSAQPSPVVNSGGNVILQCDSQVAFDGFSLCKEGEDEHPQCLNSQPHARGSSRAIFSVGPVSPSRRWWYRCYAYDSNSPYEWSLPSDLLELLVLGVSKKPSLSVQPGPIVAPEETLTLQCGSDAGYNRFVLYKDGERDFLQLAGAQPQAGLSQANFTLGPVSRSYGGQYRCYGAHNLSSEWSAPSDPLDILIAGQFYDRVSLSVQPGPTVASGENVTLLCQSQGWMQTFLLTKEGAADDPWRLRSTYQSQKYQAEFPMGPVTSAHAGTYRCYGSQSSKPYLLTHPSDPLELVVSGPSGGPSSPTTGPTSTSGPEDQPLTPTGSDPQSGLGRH

EC50 [µg/mL]	Binder
0.00734	B2
0.00593	B3
0.00646	B4
0.00944	B5

molecular target: T12, recombinant cynomolgus LILRB1 (cynomolgus); assay: MSD ELISA, coated antigen, purified IgG1
T12 construct: Bought protein

EC50 [µg/mL]	Binder
4.4	B2
0.45	B3
0.272	B4
0.25	B5

molecular target: T13, recombinant human LILRB2-His (human, UniProt Q8N423 22-461, limits assumed); assay: MSD ELISA, coated antigen, purified IgG1
T13 construct: Bought protein; also called LILRB2 protein
T13 sequence (Q8N423 22-461 limits assumed): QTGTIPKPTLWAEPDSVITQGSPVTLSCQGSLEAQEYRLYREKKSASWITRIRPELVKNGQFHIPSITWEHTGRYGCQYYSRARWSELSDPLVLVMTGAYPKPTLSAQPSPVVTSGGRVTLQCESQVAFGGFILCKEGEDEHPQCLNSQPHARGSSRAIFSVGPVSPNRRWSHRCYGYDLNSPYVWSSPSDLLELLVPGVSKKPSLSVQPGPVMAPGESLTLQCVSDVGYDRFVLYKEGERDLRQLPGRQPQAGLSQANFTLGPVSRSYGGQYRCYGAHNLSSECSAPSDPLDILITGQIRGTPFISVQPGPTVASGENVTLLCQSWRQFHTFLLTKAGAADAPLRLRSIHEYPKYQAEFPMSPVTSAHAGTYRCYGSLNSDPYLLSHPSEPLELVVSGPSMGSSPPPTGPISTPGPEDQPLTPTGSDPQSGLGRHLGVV

EC50 [µg/mL]	Binder
0.0306	B2
0.0187	B3
0.0219	B4
0.0369	B5

— US20250002577A1 (ONCORESPONSE, published 2025)
